Results: article PMC7430634, “Inactivation of the dimeric RappLS20 anti-repressor of the conjugation operon is mediated by peptide-induced tetramerization” (Nucleic Acids Research, 2020)
Blank lines part the entries; values can stand above or below the molecule they belong to.

Columns and labels:
PlcR = conditions: SAXS, 2QFC, ref Declerck et al., 2007 (Suppl. ref 7); cited from earlier work
[1] = target: PhrF* peptide (Bacillus subtilis) (UniProt P71001); conditions: cited from earlier work
[2] = target: Rap_(pLS20) (Bacillus subtilis plasmid pLS20); assay: AUC; sedimentation velocity, apo Rap_(pLS20) at 4.5 and 25 μM; 20 mM Tris, 250 mM NaCl, 10 mM MgCl2, 1 mM EDTA, 0.1 mM β-mercaptoethanol, 1% glycerol, pH 7.4; 48 000 rpm
[3] = target: Rap_(pLS20) (Bacillus subtilis plasmid pLS20); assay: SAXS; Rap_(pLS20) at 0.5 to 5 mg/ml with 5-fold molar Phr*_(pLS20); 15 mM HEPES pH 7.5, 150 mM NaCl, 1 mM DTT; 293 K; volume fractions of dimer and foot-2-foot tetramer by OLIGOMER
[4] = target: Rap_(pLS20) (Bacillus subtilis plasmid pLS20); assay: AUC; sedimentation velocity, 4.5 μM Rap_(pLS20) with Phr*_(pLS20) at 4.5 μM or 15 μM; 20 mM Tris, 250 mM NaCl, 10 mM MgCl2, 1 mM EDTA, 0.1 mM β-mercaptoethanol, 1% glycerol, pH 7.4
[5] = target: Rap_(pLS20) (Bacillus subtilis plasmid pLS20); assay: SAXS; apo Rap_(pLS20) at 0.5 to 5 mg/ml (11.3–113 μM); 15 mM HEPES pH 7.5, 150 mM NaCl, 1 mM DTT; 293 K; volume fractions of dimer and foot-2-foot tetramer by OLIGOMER
[6] = target: Rap_(pLS20) (Bacillus subtilis plasmid pLS20); assay: AUC; sedimentation equilibrium, Rap_(pLS20) (0–15 μM) with Phr*_(pLS20) at 1:3 stoichiometry (Rap:Phr*); same conditions as the SV experiments
[7] = target: Rap_(pLS20) (Bacillus subtilis plasmid pLS20); assay: AUC; sedimentation equilibrium, apo Rap_(pLS20) at 4.5 to 25 μM; same conditions as the SV experiments; 7000 to 10 000 rpm
[8] = target: Rap_(pLS20) (Bacillus subtilis plasmid pLS20); assay: SEC; Superdex 200 increase 5/150 GL, 500 mM NaCl, 20 mM TRIS pH 8, 0.2 ml/min; proteins alone (1 mg/ml) and mixtures at 1:2, 1:4, 1:1 and 2:1 (Rco:Rap) incubated 30 min on ice; total protein 0.75–1.25 mg/ml; Phr* at 5:1 over Rap where added
[9] = target: Rco_(pLS20) (Bacillus subtilis plasmid pLS20); assay: as above
NprR = NprR and its cognate peptide NprX; cited from earlier work
[10] = target: Rap_(pLS20) (Bacillus subtilis plasmid pLS20); assay: fluorescence polarisation; equilibrium competition: native Phr*_(pLS20) 0.6–1250 μM against 10 μM Rap_(pLS20) and 50 nM 6-FAM-Phr*_(pLS20); 20 mM Tris pH 7.5, 150 mM NaCl, 1 mM DTT, 0.01% Triton X-100; 25°C

Molecule: LPFEF [PapR]
- oligomerization state of PlcR with peptide (PlcR): tetramers

Molecule: RapF (from UniProt P71002)
- Kd [1]: 3.1 µM

Molecule: Rap_(pLS20) (natural protein)
- percent as a single species (dimer) at 4.5 μM [2]: > 96%
- percent tetramers at 4.5 μM [2]: 1.1%
- percent tetramers at 25 μM [2]: 3.6%
- stoichiometry N [2]: 2
- percent tetramers above 2.5 mg/ml (57.7 μM) with Phr* (pLS20) [3]: 100%
- percent tetramers at 0.5 mg/ml (11.3 μM) with Phr* (pLS20) [3]: 75%
- stoichiometry N [4]: 4
- dimer fraction at 0.5 mg/ml (11.3 μM) [5]: 0.78
- dimer fraction at 5 mg/ml (0.11 mM) [5]: 0.48
- tetramer fraction at 0.5 mg/ml (11.3 μM) [5]: 0.22
- tetramer fraction at 5 mg/ml (0.11 mM) [5]: 0.52
- stoichiometry N [6]: 4
- stoichiometry N [7]: 2
- stoichiometry N [8]: 2

Molecule: SSKPDIVG [NprX, cognate peptide of NprR, eight amino acids (SSKPDIVG)]
- Kd (NprR): 0.03 µM

Other lines, results leading:

- stoichiometry N [9]: 4
Molecule: Rco_(pLS20) (natural protein)

- IC50 [10]: 26.7 µM
- Kd [10]: 7.42 µM
Molecule: QKGMY [Phr*_(pLS20) peptide (QKGMY)]
